{"source": "patent US10314925B2", "about": "“Thymidine kinase” (priority 2004, dated 2019)", "molecules": {"B1": {"name": "TkMut2 (nucleic acid)", "DNA": "ATGGCTTCGTACCCCTGCCATCAACACGCGTCTGCGTTCGACCAGGCTGCGCGTTCTCGCGGCCATAGCAACCGACGTACGGCGTTGCGCCCTCGCCGGCAGCAAGAAGCCACGGAAGTCCGCCTGGAGCAGAAAATGCCCACGCTACTGCGGGTTTATATAGACGGTCCTCACGGGATGGGGAAAACCACCACCACGCAACTGCTGGTGGCCCTGGGTTCGCGCGACGATATCGTCTACGTACCCGAGCCGATGACTTACTGGCAGGTGCTGGGGGCTTCCGAGACAATCGCGAACATCTACACCACACAACACCGCCTCGACCAGGGCGAGATATCGGCCGGGGACGCGGCGGTGGTAATGACAAGCGCCCAGATAACAATGGGCATGCCTTATGCCGTGACCGACGCCGTTCTGGCTCCTCATGTCGGGGGGGAGGCTGGGAGTTCACATGCCCCGCCCCCGGCCCTCACCCTCATCTTCGACCGCCATCCCATCGCCGCCCTCCTGTGCTACCCGGCCGCGCGATACCTTATGGGCAGCATGACCCCCCAGGCCGTGCTGGCGTTCGTGGCCCTCATCCCGCCGACCTTGCCCGGCACAAACATCGTGTTGGGGGCCCTTCCGGAGGACAGACACATCGACCGCCTGGCCAAACGCCAGCGCCCCGGCGAGCGGCTTGACCTGGCTATGCTGGCCGCGATTCGCCGCGTTTACGGGCTGCTTGCCAATACGGTGCGGTATCTGCAGGGCGGCGGGTCGTGGTGGGAGGATTGGGGACAGCTTTCGGGGACGGCCGTGCCGCCCCAGGGTGCCGAGCCCCAGAGCAACGCGGGCCCACGACCCCATATCGGGGACACGTTATTTACCCTGTTTCGGGCCCCCGAGTTGCTGGCCCCCAACGGCGACCTGTATAACGTGTTTGCCTGGGCCTTGGACGTCTTGGCCAAACGCCTCCGTCCCATGCACGTCTTTATCCTGGATTACGACCAATCGCCCGCCGGCTGCCGGGACGCCCTGCTGCAACTTACCTCCGGGATGGTCCAGACCCACGTCACCACCCCAGGCTCCATACCGACGATCTGCGACCTGGCGCGCACGTTTGCCCGGGAGATGGGGGAGGCTAACTGA", "modifications": "HSV-1 thymidine kinase mutant sequence."}}, "key": {"HSV-tk [1]": {"tested_on": "HSV-tk", "experiment": "RT-PCR of HSV-tk mutants, RNA from Am12 supernatants", "design": "species or system HSV-1", "from_the_text": "After sequence confirmation of SFCMM-3 HSV-tk mutants (FIGS. 1A-1C), one plasmid clone of each type was used to transiently transfect E86 cells. SFCMM-3 and TK3 plasmids were used as controls. The supernatant was collected from the E86 cultures and used to stably transduce the amphotropic packaging cell line Am12 as described in Materials and Methods section of Example 2. The resulting cell populations were selected for ΔLNGFR expression.\nRNA was extracted from the E86 as well as Am12 culture supernatants containing infectious retroviral particles. RT-PCR reactions were carried out on RNA from E86 and Am12 supernatants using TKA1 and TKB1 primers according to the protocol described in Materials and Methods section of Example 2."}, "HSV-tk [2]": {"tested_on": "HSV-tk", "experiment": "PCR of genomic DNA from transduced CEM A301 cells", "format": "cell-based, HSV-1", "procedure": "(§1) CEM A301 cells were cultured in RPMI 1640 (Hyclone) supplemented with 10% FBS (Hyclone) and 2 mM glutamine. CEM A301 cells were infected with Am12 culture supernatant containing SFCMM-3 HSV-tk mutants 2 and 234. The day before transduction 5×10^5 cells/ml were cultured. Transduction was then performed by one centrifugation cycle of retroviral vector particles on cells. After the transduction phase, cells were collected and the percentage of actually transduced cells evaluated by FACS analysis. PBLs from three different donors were transduced (as described in Materials and Methods section of Example 2) with Am12 supernatant containing SFCMM-3 HSV-tk mutant 2 as well as SFCMM-3.\n(§2) The transduced cells were then sorted for ΔLNGFR expression and expanded a few days in culture.\nOne pellet for PCR analysis was prepared from the transduced non selected cells as well as from transduced selected cells as described in Materials and Methods section of Example 2. Genomic DNA was extracted from pellet cells and PCR reaction was carried out with TKA1 and TKB1 or TKY1 and TKY2 or TKZ1 and TKZ2 primers (as indicated in the table below) in a 25 μl reaction mixture containing 100-500 ng of genomic DNA, 1×PCR Buffer with 1.5 mM of MgCl2 (Applied Biosystems), […] of each dNTPs, 300 nM of each primer, 1.25 Units of AmpliTaq Gold (Applied Biosystems). The PCR cycling profile consisted of a first denaturation step for 15 min at 94° C. followed by 40 cycles with denaturation for 30 s at 94° C., annealing for 50 s at 60° C. and extension for 1 min at 72° C., and one final extension step of 10 min at 72° C., […] Ten microliters of amplified product were analyzed by agarose gel electrophoresis."}, "HSV-tk [3]": {"tested_on": "HSV-tk", "experiment": "PCR of genomic DNA from transduced PBLs of three donors", "format": "cell-based, HSV-1", "conditions": "TKA1/TKB1 primers", "procedure": "as §1, §2\nOne pellet for PCR analysis was prepared from the transduced non selected cells as well as from transduced selected cells as described in Materials and Methods section of Example 2. […] Ten microliters of amplified product were analyzed by agarose gel electrophoresis."}}}
{"molecule": "B1", "values": [{"measurement": "additional bands", "setting": "HSV-tk [1]", "value": "two very weak bands of approximately 100 and 200 bp are detected"}, {"measurement": "lower band (spliced form)", "setting": "HSV-tk [1]; TKA1/TKB1 primers", "value": "not detected"}, {"measurement": "lower band (spliced form of HSV-tk gene)", "setting": "HSV-tk [2]; CEM A301, TKA1/TKB1 primers, before and after selection", "value": "No lower band is observed"}, {"measurement": "lower band (spliced form of HSV-tk gene)", "setting": "HSV-tk [2]; CEM A301, TKY1/TKY2 and TKZ1/TKZ2 primers", "value": "No lower band is observed"}, {"measurement": "lower band (spliced form of HSV-tk gene)", "setting": "HSV-tk [3]", "value": "No lower band is observed"}]}
